Laboratory results reported in patent US20090118195A1, “Molecules Which Promote Hematopoiesis” (priority 2004, published 2009).
*1 amine or outer side, *2 acyl side, *3 side chain or, on linkers, in order; H or OH if unused. Primed or numbered codes have the meaning given here. Where no end group is shown, it is not given here. [ ]: non-standard residue; d: D form. Als″ = residue of 5-aminolevulinic acid, O=C(CCC(=O)[*:2])CN[*:1]

T1: EPO receptor (on TF-1 cells) (UniProt P19235 25-508, limits assumed)
T1 sequence (looked up): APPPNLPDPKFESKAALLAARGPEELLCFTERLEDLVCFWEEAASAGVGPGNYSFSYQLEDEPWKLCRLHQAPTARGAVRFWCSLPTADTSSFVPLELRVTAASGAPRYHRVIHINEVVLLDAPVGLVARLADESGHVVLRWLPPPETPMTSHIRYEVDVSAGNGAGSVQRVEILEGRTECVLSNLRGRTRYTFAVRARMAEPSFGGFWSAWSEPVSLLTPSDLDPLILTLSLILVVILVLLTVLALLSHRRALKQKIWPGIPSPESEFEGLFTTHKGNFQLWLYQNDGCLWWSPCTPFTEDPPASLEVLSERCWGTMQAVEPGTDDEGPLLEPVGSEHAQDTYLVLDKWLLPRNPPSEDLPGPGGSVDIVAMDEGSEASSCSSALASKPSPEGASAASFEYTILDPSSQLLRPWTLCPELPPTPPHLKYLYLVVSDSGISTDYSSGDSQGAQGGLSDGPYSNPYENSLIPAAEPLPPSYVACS


What was measured:
[1] = tested on: TF-1 cells; test: Proliferation assay with TF-1 cells by MTT (monomers); assay type: cell-based; conditions: MTT-assay data, dose-response calculated with GraphPad
Experimental: Proliferation assay with TF-1 cells by MTT
TF-1 Cells in logarithmic growth phase (˜2.10^5-1.10^6 cells/ml; RPMI medium; 20% fetal calf serum; supplemented with Penicillin, streptomycin, L-Glutamine; 0.5 ng/ml Interleukin 3) are washed (centrifuge 5 min. 1500 rpm and resuspend in RPMI complete without IL3 at 500.000 cells/ml) and precultured before start of the assay for 24 h without IL-3. At the next day the cells are seeded in 24- or 96-well plates usually using at least 6 concentrations and 4 wells per concentration containing at least 10.000 cells/well per agent to be tested. Each experiment includes controls comprising recombinant EPO as a positive control agent and wells without addition of cytokine as negative control agent. Peptides and EPO-controls are prediluted in medium to the desired concentrations and added to the cells, starting a culture period of […] under standard culture conditions (37° C., 5% carbon dioxide in the gas phase, atmosphere saturated with water). Concentrations always refer to the final concentration of agent in the well during this 4-day culture period.
At day 4, prior to start of the analysis, a dilution series of a known number of TF-1 cells is prepared in a number of wells (01250015000/10000120000150000 cells/well in 100 μl medium). These wells are treated in the same way as the test wells and later provide a calibration curve from which cell numbers can be determined. Having set up these reference wells, MTS and PMS from the MTT proliferation kit (Promega, CellTiter 96 Aqueous non-radioactive cell proliferation assay) are thawed in a 37° C. waterbath and 100 μl of PMS solution are added to 2 ml of MTS solution. 20 μl of this mixture are added to each well of the assay plates and incubated at 37° C. for 3-4 h. 25 μl of 10% sodium dodecylsulfate in water are added to each well prior to measurement E492 in an ELISA Reader.
Using graphical evaluations as shown in FIGS. 17 and 18 based on calculations of the dose-response relationship using the program GraphPad the following EC50 values were determined on the basis of MTT-assay data: […]

[2] = target: T1, EPO receptor (on TF-1 cells); test: cell-based or functional assay

| Molecule | EC50, TF-1 cell proliferation (MTT assay) [2] [µM] | further results |
| --- | --- | --- |
| GGTYSCHF-(Als)-LTWVCKPQGG [SEQ ID NO 7] |  | EC50 [1]: 5.26 µM |
| GGTYSCHFGGLTWVCKPQGG |  | EC50 values [1]: no activity |
| GGTYSCHF-(Als)-LTWVCKKQGG [SEQ ID NO 8] |  | EC50 [1]: 5 µM |
| GGTYSCHFGRLTWVCKPQGG [SEQ ID NO 5: GGTYSCHFGRLTWVCKPQGG] | 5.16 |  |
| GGTYSCHFGKLTWVCKKQGG [SEQ ID NO 2: GGTYSCHFGKLTWVCKKQGG] | 3.28 |  |

The next lines start with results.

| EC50, TF-1 cell proliferation (MTT assay) [2] [µM] | Molecule | further results |
| --- | --- | --- |
| 4.66 | GGTYSCHFGKLTWVCKPQGG [SEQ ID NO 4: GGTYSCHFGKLTWVCKPQGG] |  |
| 2.52 | GGTYSCHFGPLTWVCKKQGG |  |
| 5 | GGTYSCHF[Als″]LTWVCKKQGG (cysteine pairing not given here) [SEQ ID NO 8: GGTYSCHF-(Als)-LTWVCKKQGG] |  |
| 4.97 | GGTYSCHFGRLTWVCKKQGG [SEQ ID NO 6: GGTYSCHFGRLTWVCKKQGG] |  |
| 5.26 | GGTYSCHF[Als″]LTWVCKPQGG (cysteine pairing not given here) [SEQ ID NO 7: GGTYSCHF-(Als)-LTWVCKPQGG] |  |
| 5.04 | GGTYSCHFAKLTWVCKKQGG |  |
